As a reminder, the Kd is the free concentration of one partner at which half of the binding sites on the other are occupied at equilibrium, for simple one-to-one binding. Broadly, the koff is a measure of how fast the partners let go of each other. A higher koff goes with a short-lived complex. The term kon denotes the rate constant with which the complex forms. Low values mean slower complex formation, high ones faster complex formation.

The record followed here is patent US20190062438A1 (CSL, published 2019).

Residue numbers refer to the chain shown, from its start. Where two headings read alike, the source gives them in different places.

Experiment [1] addresses T1, soluble Homo sapiens CD131 comprising a C-terminal 6xHis tag (human, UniProt P32927 17-438).
T1 construct: truncated after Ser438, C-terminal 6xHis; also called shCD131; shβc
T1 sequence: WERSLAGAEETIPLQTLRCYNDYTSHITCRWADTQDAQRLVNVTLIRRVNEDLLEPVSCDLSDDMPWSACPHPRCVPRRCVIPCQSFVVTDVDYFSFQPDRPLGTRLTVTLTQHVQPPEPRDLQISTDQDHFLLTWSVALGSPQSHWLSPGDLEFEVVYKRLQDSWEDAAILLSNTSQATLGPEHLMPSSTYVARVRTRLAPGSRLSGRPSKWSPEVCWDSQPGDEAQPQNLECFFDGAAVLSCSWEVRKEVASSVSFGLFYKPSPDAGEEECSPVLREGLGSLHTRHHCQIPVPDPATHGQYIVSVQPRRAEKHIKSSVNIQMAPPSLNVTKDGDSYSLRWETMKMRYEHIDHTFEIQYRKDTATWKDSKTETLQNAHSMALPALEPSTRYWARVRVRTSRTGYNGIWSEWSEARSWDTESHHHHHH
Briefly: SPR, Fab over captured shCD131. On the procedure: (§1) Binding kinetics were measured using SPR with a BIAcore™ A-100 instrument (GE Healthcare Life Sciences). An anti-C-terminal Hexa-His antibody (3H3) was immobilized on spots 1, 2, 4 and 5 of each flow cell of a CM-5 sensor chip (GE Healthcare Life Sciences) using amine-coupling chemistry (116). […] As shβc is a dimer, kinetics assays were performed with shβc captured on the sensor surface, and purified Fab injected as the analyte. Avidity effects were avoided by the use of Fab rather than whole IgG.
(§2) shCD131 was captured on spots 1 and 5 of each flow cell for 2 minutes at a concentration of 0.4 μg/ml. […] For some analysis purified Fab was injected over each flow cell for 3 minutes and dissociation was monitored for a further 10 minutes. Regeneration of the surface was performed after each cycle with a 40 second injection of 25 mM glycine, pH 2.0. The analysis was performed with Fabs at several concentrations between 100 and 0.31 nM, with each concentration analyzed twice and in random order. The analysis was performed at a flow rate of 30 μl/min in HBS-EP buffer (10 mM Hepes, 150 mM NaCl, 3 mM EDTA, 0.005% Tween 20, pH 7.4) at 37° C. Responses from spots 2 and 4 of each flow cell, (in which shβc was not captured, but otherwise treated identically), were subtracted from those of spots 1 and 5 respectively to produce reference subtracted data. Reference subtracted responses from a blank injection comprising buffer alone were subtracted from the resultant sensorgrams to produce double referenced data suitable for kinetic analysis. Double-referenced sensorgrams were fitted using non-linear regression to a model describing 1:1 kinetics, including a term for mass transport limitation. The Rₘₐₓ value was fitted locally to account for slight deviations in the level of sCD131 captured, with association rate (kₐ), dissociation rate (kd) and equilibrium dissociation constant (KD) fitted globally.
A general note: SPR reads the build-up and loss of mass on a sensor chip optically.

The target in experiment [2] is T2, human CD131 (human, UniProt P32927 17-897).
T2 sequence: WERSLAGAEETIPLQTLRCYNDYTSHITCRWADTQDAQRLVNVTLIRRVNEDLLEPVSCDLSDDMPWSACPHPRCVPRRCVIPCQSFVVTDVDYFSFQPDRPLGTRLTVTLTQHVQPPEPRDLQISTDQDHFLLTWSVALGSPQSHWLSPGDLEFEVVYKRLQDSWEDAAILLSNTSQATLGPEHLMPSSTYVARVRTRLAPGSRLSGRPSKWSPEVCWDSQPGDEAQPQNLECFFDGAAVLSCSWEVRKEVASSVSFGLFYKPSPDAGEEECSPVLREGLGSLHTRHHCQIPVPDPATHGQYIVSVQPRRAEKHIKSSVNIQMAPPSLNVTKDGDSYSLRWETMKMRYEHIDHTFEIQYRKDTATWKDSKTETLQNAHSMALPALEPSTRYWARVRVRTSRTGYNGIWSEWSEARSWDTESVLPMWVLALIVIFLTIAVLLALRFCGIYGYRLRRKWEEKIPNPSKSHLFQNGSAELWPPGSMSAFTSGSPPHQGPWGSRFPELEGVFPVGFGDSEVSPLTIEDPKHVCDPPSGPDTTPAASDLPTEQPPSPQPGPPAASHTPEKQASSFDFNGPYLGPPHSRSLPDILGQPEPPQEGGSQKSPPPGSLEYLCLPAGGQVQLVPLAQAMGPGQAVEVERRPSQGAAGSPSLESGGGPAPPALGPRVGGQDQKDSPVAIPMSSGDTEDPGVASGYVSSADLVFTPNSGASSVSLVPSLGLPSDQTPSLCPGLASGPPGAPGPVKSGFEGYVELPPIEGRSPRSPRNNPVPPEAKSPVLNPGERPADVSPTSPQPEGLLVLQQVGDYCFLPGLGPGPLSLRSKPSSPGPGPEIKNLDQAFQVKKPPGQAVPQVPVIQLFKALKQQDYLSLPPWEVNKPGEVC
Briefly: cell-based or functional assay.

The target of experiment [3] is T2, human CD131. Briefly: cell-based or functional assay. The source holds these as a separate data set.
The target of experiment [4] is T2, human CD131. Briefly: cell-based or functional assay. This is another data set of the same source.
Experiment [5] has as its target T1, soluble Homo sapiens CD131 comprising a …. Briefly: SPR, Fab over captured shCD131. As for the experimental part: as §1, §2
This is another data set of the same source.

B1: 9A2-VR19 Fab (Fab, V domains shown)
VH: EVQLLESGGGLVQPGGSLRLSCAASGFTFSHYHMLWVRQAPGKGLEWVSSIRSSGGFTYYADSVKGRFTISRDNSKNTLYLQMNSLRAEDTAVYYCARFYDSFFDIWGQGTMVTVSS
VL: DIQMTQSPSSVSASVGDRVTITCRASQGISSWLAWYQQKPGKAPKLLIYAASSLQSGVPSRFSGSGSGTDFTLTISSLQPEDFATYYCGIPILGPITFGQGTRLEIKR
notes: recombinant Fab
Consider B1, for which the Kd in experiment [1] was 30 nM.

B2: 9A2-VR24 (antibody, V domains shown)
VH: B1 VH with S30P, H31W, H33R, M34V, L35H
VL: B1 VL with G89Q, I90Q, P91A, I92N, L93S, G94F
In the case of B2, in the experiment with human CD131 [2], the “IC50 GM-CSF, TF-1 proliferation” value was determined as 2.5 nM; the “IC50 IL-3, TF-1 proliferation” value turned out to be 0.726 nM; the “IC50 IL-5, TF-1 proliferation” value was determined as 23.5 nM; the “pStat5 IC50 GM-CSF, TF-1 bla reporter” value is 8.6 nM. The “fold potency improvement (GM-CSF) over parental 9A2” value in the experiment with human CD131 [3] stood at 182 fold. Further, the “IC50 GM-CSF, TF-1 proliferation” value with human CD131 [4] stood at 2.5 nM.

B3: 9A2-VR3 (antibody, V domains shown)
VH: B1 VH
VL: DIQMTQSPSSVSASVGDRVTITCRASQGLRPFVNWYQQKPGKAPKLLIYAASSLQSGVPSRFSGSGSGTDFTLTISSLQPEDFATYYCQQANSFPITFGQGTRLEIKR
As to B3, the “IC50 GM-CSF, TF-1 proliferation” value with human CD131 [2] worked out at 101 nM.

B4: 9A2-VR39 (antibody, V domains shown)
VH: B1 VH with R52N, S53G, S54R, G56R, F57V
VL: B1 VL with G89Q, I90Q, P91A, I92N, L93S, G94F
Consider B4, for which, in the experiment with human CD131 [2], the “IC50 GM-CSF, TF-1 proliferation” value was determined as 0.88 nM and the “pStat5 IC50 GM-CSF, TF-1 bla reporter” value was 4.1 nM. The “fold improvement in GM-CSF potency over parental 9A2” value with human CD131 [3] is 518 fold. Besides, the “IC50 GM-CSF, TF-1 proliferation” value with human CD131 [4] amounted to 0.88 nM.

B5: 9A2-VR2 (antibody, V domains shown)
VH: B1 VH
VL: B3 VL with L29Q, N34S
As for B5, the “IC50 GM-CSF, TF-1 proliferation” value with human CD131 [2] turned out to be 444 nM.

B6: 9A2-VR4 (antibody, V domains shown)
VH: B1 VH
VL: B3 VL with L29I, N34D
As to B6, the “IC50 GM-CSF, TF-1 proliferation” value in the experiment with human CD131 [2] amounted to 122 nM.

B7: 9A2-VR36 Fab (Fab, V domains shown)
VH: B1 VH with R52G, S53G, S54D, G55K, G56R, F57Q
VL: B1 VL with G89Q, I90Q, P91A, I92N, L93S, G94F
notes: recombinant Fab
B7: binding in experiment [1] was put at a Kd of 0.3 nM.

B8: 9A2-VR32 Fab (Fab, V domains shown)
VH: B1 VH with R52S, S53G, G55V, G56R, F57S
VL: B1 VL with G89Q, I90Q, P91A, I92N, L93S, G94F
notes: recombinant Fab
With B8, the dissociation constant (Kd) in experiment [1] worked out at 0.34 nM.

B9: 9A2-VR26 Fab (Fab, V domains shown)
VH: B1 VH with S30I, H33R, M34V, L35H
VL: B1 VL with G89Q, I90Q, P91A, I92N, L93S, G94F
notes: recombinant Fab
Turning to B9, in experiment [1], binding was characterised by a dissociation constant (Kd) of 0.23 nM, the koff is 0.00055 s⁻¹ and the kon was 2.4e+06 M⁻¹ s⁻¹.

B10: 9A2-VR21 Fab (Fab, V domains shown)
VH: B1 VH with S30M, H33R, M34V, L35H
VL: B1 VL with G89Q, I90Q, P91A, I92N, L93S, G94F
notes: recombinant Fab
Consider B10, for which binding in experiment [1] was characterised by a dissociation constant (Kd) of 0.39 nM.

B11: 9A2-VR44 Fab (Fab, V domains shown)
VH: B1 VH with F103H
VL: B1 VL with G89Q, I90Q, P91A, I92N, L93S, G94F
notes: recombinant Fab
Regarding B11, the Kd in experiment [1] was 5 nM.

B12: 9A2-VR20 Fab (Fab, V domains shown)
VH: B1 VH with S30N, H33R, M34V, L35H
VL: B1 VL with G89Q, I90Q, P91A, I92N, L93S, G94F
notes: recombinant Fab
As for B12, the Kd in experiment [1] was found to be 0.58 nM.

B13: 9A2-VR40 Fab (Fab, V domains shown)
VH: B1 VH with R52N, S53G, S54Y, G56I, F57Q
VL: B1 VL with G89Q, I90Q, P91A, I92N, L93S, G94F
notes: recombinant Fab
Consider B13, for which, in experiment [1], binding was put at a Kd of 0.52 nM, the dissociation rate constant (koff) was 0.00066 s⁻¹ and the kon was determined as 1.3e+06 M⁻¹ s⁻¹.

B14: 9A2-VR39 Fab (Fab, V domains shown)
VH: B1 VH with R52N, S53G, S54R, G56R, F57V
VL: B1 VL with G89Q, I90Q, P91A, I92N, L93S, G94F
notes: recombinant Fab
In the case of B14, in experiment [1], the dissociation constant Kd was 0.27 nM, the “fold improvement in binding affinity over parental 9A2” value was approximately 180 fold, the koff stood at 0.00059 s⁻¹ and the kon stood at 3e+06 M⁻¹ s⁻¹. In experiment [5], this molecule showed a Kd of 0.27 nM, a koff of 0.00059 s⁻¹ and a kon of 3e+06 M⁻¹ s⁻¹.

B15: 9A2-VR24 Fab (Fab, V domains shown)
VH: B1 VH with S30P, H31W, H33R, M34V, L35H
VL: B1 VL with G89Q, I90Q, P91A, I92N, L93S, G94F
notes: recombinant Fab
In the case of B15, in experiment [1], binding was put at a Kd of 0.46 nM, the “fold decrease in dissociation rate (kd) compared to parental 9A2” value is 87 fold, the “fold decrease in the dissociation rate (kd) compared to parental 9A2” value turned out to be 87 fold and the “fold higher affinity compared to parental 9A2” value is 106 fold. Also, in experiment [1], the off-rate (koff) came to 0.0011 s⁻¹ and the kon is 2.3e+06 M⁻¹ s⁻¹. Also, in experiment [5], the Kd turned out to be 0.46 nM, the koff stood at 0.0011 s⁻¹ and the kon was found to be 2.3e+06 M⁻¹ s⁻¹.

B16: 9A2-VR41 Fab (Fab, V domains shown)
VH: B1 VH with R52N, S53G, S54K, G56W, F57T
VL: B1 VL with G89Q, I90Q, P91A, I92N, L93S, G94F
notes: recombinant Fab
As to B16, in experiment [1], the Kd worked out at 0.46 nM, the koff came to 0.00076 s⁻¹ and the association rate constant (kon) amounted to 1.7e+06 M⁻¹ s⁻¹.

B17: 9A2-VR35 Fab (Fab, V domains shown)
VH: B1 VH with R52N, S53G, S54F, G56R, F57N
VL: B1 VL with G89Q, I90Q, P91A, I92N, L93S, G94F
notes: recombinant Fab
For the molecule B17, in experiment [1], the Kd was determined as 0.34 nM.

B18: 9A2-VR42 Fab (Fab, V domains shown)
VH: B1 VH with R52G, S53G, S54D, G55I, G56R, F57Q
VL: B1 VL with G89Q, I90Q, P91A, I92N, L93S, G94F
notes: recombinant Fab
Turning to B18, in experiment [1], the affinity, expressed as Kd, was 0.38 nM.

B19: 9A2-VR27 Fab (Fab, V domains shown)
VH: B1 VH with S30T, H33R, M34V, L35H
VL: B1 VL with G89Q, I90Q, P91A, I92N, L93S, G94F
notes: recombinant Fab
For the molecule B19, in experiment [1], the affinity, expressed as Kd, was 0.47 nM; the koff was 0.0011 s⁻¹; the kon was found to be 2.3e+06 M⁻¹ s⁻¹.
